Kd data for 13 sequences are collected here from patent publication US20220333113.

In one data set the target is T1, RIG-I CTD (aa 792-925) (Homo sapiens) (UniProt O95786).
T1 sequence: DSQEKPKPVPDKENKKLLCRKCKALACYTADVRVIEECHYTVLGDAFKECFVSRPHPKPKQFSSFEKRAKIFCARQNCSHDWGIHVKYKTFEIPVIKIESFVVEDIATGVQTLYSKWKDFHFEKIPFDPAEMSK
As to the kind of experiment: EMSA. To be noted: J = 5-(N-3-phenylpropylcarboxyamide)-2'-deoxyuridine (PPdU) at every J (n in listing); SB18T0.01 (5 mM MgCl2) + 20% glycerol, 1 mM DTT, 37 C.
Usually Kd stands for the free concentration of one partner at which half of the binding sites on the other are occupied at equilibrium, for simple one-to-one binding. Consider “ATCTCTGTGTCATGTGTTTTAATGTCAGTTTAATGATGAGGGACGGGCAG [14832-55_3]”, for which the Kd was 0.0072 nM.

The data set is the same for the next values; noted with them: J = PPdU at every J; SB18T0.01 + 20% glycerol, 1 mM DTT, 37 C.
For the sequence “ATCTCTGTGTCATGTGTTTTAATGTCAGTTTAATGATGAGGGAC [14832-55_7]”, the Kd was found to be 0.011 nM.
For the sequence “ATCTCTGTGTCATGTGTTTTAATGTCAGTTTAATGATGAGGGACGGG [14832-55_6]”, the Kd was 0.018 nM.
As to “ATCTCTGTGTCATGTGTTTTAATGTCAGTTTAATG [14832-55_10]”, the Kd was found to be 1.5 nM.
As for “TCTGTGTCATGTGTTTTAATGTCAGTTTAATGATGA [14832-55_15]”, the Kd came to 0.063 nM.
On the same count and under the same terms, for “ATCTCTGTGTCATGTGTTTTAATGTCAGTTTAATGATG [14832-55_9]” the value was 0.15 nM; for “TCTGTGTCATGTGTTTTAATGTCAGTTTAATGATGAGGGACGGGCAG [14832-55_4]”, 0.084 nM.
Turning to “CTGTGTCATGTGTTTTAATGTCAGTTTAATGATGAGG [14832-55_12]”, the Kd worked out at 0.34 nM.
The same measure, in the same setting: next, “TCTGTGTCATGTGTTTTAATGTCAGTTTAATGATGAGG [14832-55_11]”: 0.068 nM.
Regarding “GTGTCATGTGTTTTAATGTCAGTTTAATGATGAGGGACGGGCAG [14832-55_5]”, the Kd came to 36 nM.
In the case of “TGTGTCATGTGTTTTAATGTCAGTTTAATGATGAGG [14832-55_13]”, the Kd is 4.3 nM.
On the same count and under the same terms, next, “TCTGTGTCATGTGTTTTAATGTCAGTTTAATGATGAG [14832-55_14]”: 0.066 nM.

A further data set concerns the target T2, RIG-I WT full-length (Homo sapiens) (UniProt O95786).
T2 sequence: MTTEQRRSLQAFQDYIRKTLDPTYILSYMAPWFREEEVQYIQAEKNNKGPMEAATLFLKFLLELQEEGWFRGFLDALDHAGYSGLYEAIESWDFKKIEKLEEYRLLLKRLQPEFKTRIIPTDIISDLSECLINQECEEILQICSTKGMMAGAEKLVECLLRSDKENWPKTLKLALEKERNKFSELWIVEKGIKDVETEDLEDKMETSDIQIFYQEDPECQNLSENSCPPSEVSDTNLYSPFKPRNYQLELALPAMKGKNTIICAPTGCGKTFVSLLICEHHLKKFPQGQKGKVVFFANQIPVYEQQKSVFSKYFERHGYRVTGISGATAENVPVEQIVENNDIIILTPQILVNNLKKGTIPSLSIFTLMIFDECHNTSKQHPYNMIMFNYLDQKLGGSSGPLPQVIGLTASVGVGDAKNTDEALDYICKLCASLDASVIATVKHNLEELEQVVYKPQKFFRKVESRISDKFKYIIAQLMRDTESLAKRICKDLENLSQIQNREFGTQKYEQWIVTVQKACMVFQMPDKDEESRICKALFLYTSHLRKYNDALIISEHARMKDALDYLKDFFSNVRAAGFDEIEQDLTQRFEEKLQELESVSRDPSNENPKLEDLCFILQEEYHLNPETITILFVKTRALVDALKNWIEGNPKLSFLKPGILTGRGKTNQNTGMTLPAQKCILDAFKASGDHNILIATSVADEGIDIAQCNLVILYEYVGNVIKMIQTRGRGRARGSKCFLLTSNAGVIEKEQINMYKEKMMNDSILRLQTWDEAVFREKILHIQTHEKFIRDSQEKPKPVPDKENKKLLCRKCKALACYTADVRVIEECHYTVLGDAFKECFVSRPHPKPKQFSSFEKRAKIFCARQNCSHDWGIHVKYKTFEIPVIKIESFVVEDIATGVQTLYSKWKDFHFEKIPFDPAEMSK
Description: filter. The settings on record: J = 5-(N-3-phenylpropylcarboxyamide)-2'-deoxyuridine (PPdU) at every J (n in listing); SB18T0.01 (5 mM MgCl2) + 1 mM DTT, 37 C.
“ATCTCTGTGTCATGTGTTTTAATGTCAGTTTAATGATGAGGGACGGGCAG [14832-55_3]”: the Kd stood at 0.024 nM.

The same data set, now with this note: J = PPdU at every J; SB18T0.01 + 1 mM DTT, 37 C.
For the sequence “ATCTCCGGGAACACTGTCTGATTAATGTCTTGTAAGCGGGTTTTCGGCAG [14833-10_3]”, the Kd was determined as 12 nM.
